Test results reported in the supplement of paper PMC10126150.
± gives the standard deviation of the averaged measurements.

Tested on: ATP
Assay: switch fluorescence ratio, 500 uM ATP over buffer (Cy3 cluster intensity, sum of 5 cycles each) (fold (ratio)); higher = stronger signal-on switching upon ATP binding; sequences stand for … in TCGTCGGCAGCGTCAGATGTGTATAAGAGACAGTTTTTTTTTTTTTTTTTTTTTTTTT…TC
Details: aptamer strand: ATP DNA aptamer (quencher-CACCTGGGGGAGTATTGCGGAGGAAGG + anchor), 100 nM annealed; ATP concentration: 500 uM
How it was run: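 Five buffer/ATP imaging cycles were run on Cy3-labelled switching-strand clusters on a modified Illumina MiSeq flow-cell, with NaOH stripping and re-annealing between cycles. In each cycle, clusters annealed to 100 nM quencher-labelled ATP aptamer were imaged in selection buffer, then after 15 min with 500 uM ATP at 22 °C. Per cluster, the fluorescence ratio is summed target-cycle over summed buffer-cycle Cy3 intensity, averaged per switch-domain sequence. Only clusters within 100-1000 RFU were kept.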
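Further: ATP exposure 15 min at 22 °C before imaging.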

| Sequence | switch fluorescence ratio |
| --- | --- |
| GCGCTGGGTG | 1.11 ± 0.16 |
| GCGCTGGTTT | 0.99 ± 0.034 |
| GCGCTTACTA | 1.31 ± 0.079 |
| GCGGAACGGT | 1.03 ± 0.034 |
| GCGGAAGAGC | 1.06 ± 0.032 |
| GCGGAAGGCG | 1 ± 0.018 |
| GCGGAAGGGT | 1 ± 0.04 |
| GCGGACAGTT | 0.9675 ± 0.0086 |
| GCGGACGGAC | 1.08 ± 0.061 |
| GCGGCGGGGA | 1.01 ± 0.039 |
| GCGGCGTGTC | 1.028 ± 0.0083 |
| GCGGCTATGG | 1.01 ± 0.019 |
| GCGGCTGGGA | 1.047 ± 0.0092 |
| GCGGCTGGTT | 0.981 ± 0.05 |
| GCGGCTTGGG | 1.03 ± 0.055 |
| GCGGGAAAGT | 0.9568 ± 0.009 |
| GCGGGACCCG | 1.01 ± 0.016 |
| GCGGGAGAGG | 1.02 ± 0.033 |
| GCGGGAGGAT | 1.031 ± 0.01 |
| GCGGGAGGGA | 1.03 ± 0.015 |
| GCGGGAGGGT | 1.015 ± 0.0081 |
| GCGGGATGGC | 1.007 ± 0.0087 |
| GCGGGATTCG | 0.998 ± 0.059 |
| GCGGGCCTTG | 0.984 ± 0.068 |
| GCGGGCGGGA | 1.031 ± 0.0098 |
| GCGGGCGTCG | 0.994 ± 0.048 |

| Sequence | switch fluorescence ratio |
| --- | --- |
| GCGGGGAACA | 1 ± 0.017 |
| GCGGGGACGT | 1.02 ± 0.027 |
| GCGGGGAGGG | 1.05 ± 0.033 |
| GCGGGGGGCT | 1.03 ± 0.041 |
| GCGGGGGTCA | 0.974 ± 0.05 |
| GCGGGGGTGC | 1.03 ± 0.048 |
| GCGGGGTAGT | 1.008 ± 0.0044 |
| GCGGGGTATC | 1.09 ± 0.18 |
| GCGGGGTGGG | 0.9835 ± 0.0051 |
| GCGGGGTGTT | 1.03 ± 0.013 |
| GCGGGGTTAT | 1.03 ± 0.011 |
| GCGGGTATGG | 1 ± 0.021 |
| GCGGGTCGGA | 1.02 ± 0.039 |
| GCGGGTGAGG | 1.02 ± 0.026 |
| GCGGGTGGAT | 1.01 ± 0.053 |
| GCGGGTGGCT | 1.03 ± 0.019 |
| GCGGGTGGGA | 1.02 ± 0.034 |
| GCGGGTTAAG | 0.9832 ± 0.0023 |
| GCGGGTTTTA | 1.006 ± 0.0083 |
| GCGGTAATTT | 1 ± 0.024 |
| GCGGTACTCT | 2.27 ± 0.41 |
| GCGGTAGAGC | 1.017 ± 0.0099 |
| GCGGTCAGGG | 1.01 ± 0.016 |
| GCGGTCATGG | 0.992 ± 0.046 |
| GCGGTCCCCG | 1.11 ± 0.031 |
| GCGGTGCCTG | 0.977 ± 0.042 |

| Sequence | switch fluorescence ratio |
| --- | --- |
| GCGGTTAGAA | 1.02 ± 0.026 |
| GCGGTTCCTG | 0.9829 ± 0.0076 |
| GCGGTTGGGG | 1.01 ± 0.018 |
| GCGGTTGTCG | 1.01 ± 0.03 |
| GCGGTTTCGG | 0.994 ± 0.024 |
| GCGGTTTGAC | 1.03 ± 0.018 |
| GCGTAAAGGT | 1.014 ± 0.0064 |
| GCGTAACCGT | 0.99 ± 0.038 |
| GCGTAAGGGT | 0.985 ± 0.012 |
| GCGTAAGGTG | 1.1 ± 0.084 |
| GCGTACTCAA | 1.11 ± 0.043 |
| GCGTAGAATC | 1.02 ± 0.018 |
| GCGTAGGGCC | 1.03 ± 0.027 |
| GCGTATCTTA | 0.968 ± 0.014 |
| GCGTCAATTG | 1.02 ± 0.035 |
| GCGTCAGGTG | 3.82 ± 0.21 |
| GCGTCCGCGG | 1.26 ± 0.041 |
| GCGTCGGGGA | 1 ± 0.047 |
| GCGTCTAATC | 0.994 ± 0.011 |
| GCGTGAAGAA | 1.03 ± 0.029 |
| GCGTGATTGC | 1.06 ± 0.031 |
| GCGTGCTGAA | 1.04 ± 0.043 |
| GCGTGGAGGG | 1.013 ± 0.0029 |
| GCGTGGGGGA | 1 ± 0.039 |
| GCGTGGGGGC | 1.02 ± 0.019 |
| GCGTTACTTA | 1.06 ± 0.018 |

| Sequence | switch fluorescence ratio |
| --- | --- |
| GCGTTCGGGC | 1 ± 0.029 |
| GCGTTGGGGC | 1 ± 0.054 |
| GCGTTGTGAA | 0.9835 ± 0.0057 |
| GCGTTGTGGC | 1.01 ± 0.05 |
| GCGTTGTTGT | 0.981 ± 0.02 |
| GCGTTTAGTA | 0.992 ± 0.03 |
| GCGTTTATAC | 1.96 ± 0.56 |
| GCGTTTGGGT | 0.9955 ± 0.0041 |
| GCGTTTGGTA | 0.988 ± 0.04 |
| GCGTTTTGAG | 0.981 ± 0.025 |
| GCGTTTTGCA | 0.978 ± 0.015 |
| GCGTTTTTCA | 0.9801 ± 0.0094 |
| GCTAAAAAGC | 0.998 ± 0.033 |
| GCTAAACGTG | 0.959 ± 0.014 |
| GCTAAAGGTC | 1.05 ± 0.044 |
| GCTAAATCGC | 1.04 ± 0.034 |
| GCTAAATGTT | 0.988 ± 0.015 |
| GCTAACCATT | 1.1 ± 0.15 |
| GCTAACGTGC | 0.993 ± 0.046 |
| GCTAAGCCTG | 1.03 ± 0.017 |
| GCTAATAGCC | 1.059 ± 0.00084 |
| GCTAATGGGA | 0.994 ± 0.018 |
| GCTAATTGCA | 1.03 ± 0.057 |
| GCTACAGCTA | 1.01 ± 0.04 |
| GCTACCTTTT | 1.06 ± 0.069 |
| GCTACTACTG | 1.05 ± 0.022 |

| Sequence | switch fluorescence ratio |
| --- | --- |
| GCTACTTTGC | 1.037 ± 0.0045 |
| GCTAGAAAGA | 0.972 ± 0.0073 |
| GCTAGAGGGG | 1.02 ± 0.048 |
| GCTAGAGTGC | 0.979 ± 0.021 |
| GCTAGATGCG | 0.973 ± 0.03 |
| GCTAGCGTTC | 1 ± 0.013 |
| GCTAGCTAAG | 1.034 ± 0.0011 |
| GCTAGGGGTG | 1.07 ± 0.055 |
| GCTAGGGTGG | 0.994 ± 0.018 |
| GCTAGGGTTT | 0.965 ± 0.015 |
| GCTAGTAAAA | 1.02 ± 0.029 |
| GCTAGTATG | 0.9954 ± 0.0072 |
| GCTAGTGGTG | 1.04 ± 0.018 |
| GCTAGTGTGG | 1.03 ± 0.015 |
| GCTAGTTGGG | 0.9998 ± 0.0015 |
| GCTATACAGC | 1.03 ± 0.049 |
| GCTATAGTAT | 0.998 ± 0.0056 |
| GCTATATTTT | 0.982 ± 0.017 |
| GCTATCACCA | 1.31 ± 0.32 |
| GCTATCCCTG | 1.05 ± 0.018 |
| GCTATCGAGT | 1.01 ± 0.018 |
| GCTATCGTGC | 0.975 ± 0.013 |
| GCTATCTTAT | 0.9798 ± 0.008 |
| GCTATGAAAG | 0.995 ± 0.013 |
| GCTATGAATG | 1.01 ± 0.024 |
| GCTATGAGAC | 1.03 ± 0.055 |

| Sequence | switch fluorescence ratio |
| --- | --- |
| GCTATGAGTA | 0.9832 ± 0.0097 |
| GCTATGTGGG | 1.003 ± 0.0041 |
| GCTATTAGTG | 0.9892 ± 0.0051 |
| GCTATTGGGT | 0.95 ± 0.022 |
| GCTATTTGGA | 0.997 ± 0.012 |
| GCTCAACAGA | 1.022 ± 0.0057 |
| GCTCAACGGT | 0.9561 ± 0.0041 |
| GCTCACACGG | 1.62 ± 0.023 |
| GCTCACCTAT | 1.05 ± 0.048 |
| GCTCAGGGGA | 1.21 ± 0.097 |
| GCTCATAAAA | 1.001 ± 0.0065 |
| GCTCATGAGC | 1.007 ± 0.0093 |
| GCTCCCTGAG | 1.056 ± 0.0076 |
| GCTCCTGAGG | 1.073 ± 0.0081 |
| GCTCCTGTGC | 1.1992 ± 0.00049 |
| GCTCGATGTG | 1 ± 0.015 |
| GCTCGGTCGG | 1.02 ± 0.037 |
| GCTCGTAAGT | 1.01 ± 0.0049 |
| GCTCTAATGC | 1.17 ± 0.096 |
| GCTCTAGTGT | 0.996 ± 0.013 |
| GCTCTATCAC | 1.04 ± 0.035 |
| GCTCTATTAT | 1.11 ± 0.16 |
| GCTCTCGGTA | 1.03 ± 0.039 |
